Reference: PMC10837352

Target: N‐terminal TadA‐8e (split site R74) fused to nMagHigh1 (UniProt P68398)

adenine base editing at the ABES4 and ABES6 targets in E. coli DH10B, level 2‐BLABE (nMagHigh1‐pMag), in the absence of blue light, Sanger sequencing: 3% | adenine base editing at the ABES4 and ABES6 targets in E. coli DH10B, level 2‐BLABE (nMagHigh1‐pMag), in the presence of blue light (10 mW cm^−2, 6 h), Sanger sequencing: 90%
Substance: pMag fused to C‐terminal TadA‐8e (split site R74) and nCas9 (from UniProt P68398 75-167)
